Laboratory results from patent US20230183305A1, “KERATIN BD-11, PREPARATION METHOD THEREFOR AND PHARMACEUTICAL COMPOSITION AND USE THEREOF” (INSTITUTE OF MATERIA MEDICA, CHINESE ACADEMY OF MEDICAL …, priority 2019, published 2023).

Test system: acetic acid writhing in ICR mice
Assay: Acetic acid writhing test in ICR mice
Assay type: in vivo, mouse
Conditions: for Writhing incubation period: 0.6% acetic acid i.p.; for Writhing incubation period / Frequency of writhing: n=13; for Frequency of writhing: within 15 minutes
Experimental: • Animals: male ICR mice; • Drugs and reagents: aspirin, physiological saline, glacial acetic acid, protein BD-11.
Experiment grouping: • Model group; • Aspirin 300 mg/kg group; • Protein BD-11, 50 mg/kg group, 200 mg/kg group.
One day after the experimental animals adapt to the environment, Aspirin 300 mg/kg, protein BD-11 50 mg/kg, 200 mg/kg were given orally one hour in advance, and the administration volume was 10 ml/kg; Then, 0.6% acetic acid solution was injected intraperitoneally, and the incubation period (seconds) and frequency of writhing in the animal was observed within 15 minutes.
Calculate the mean and standard error of the data in each group. Compared with the model group by TTEST, P<0.05 was considered as statistically different.
One hour after oral administration of aspirin 300 mg/kg and different doses of protein BD-11 (50 mg/kg, 200 mg/kg), 0.6% acetic acid solution was intraperitoneally injected to observe the writhing incubation period and frequency of ICR mice.
0.6% acetic acid solution was injected into the abdominal cavity of mice, which caused deep and large area and long-term painful stimulation, causing the mice to writhe (the abdomen was contracted into an “S” shape, the trunk and hind legs were stretched, the buttocks were raised and creeping). The incubation time to start writhing and times of writhing in mice were used as the pain response indexs to determine whether the test sample had analgesic effect. […] Compared with the model group, P<0.05, which is statistically significant.

B1: BD-11: recombinant keratin, amino acid sequence SEQ ID NO:1, expressed in E. coli, band around 59 kD; Example 4 batch tested (protein, listed as Bos taurus)
chain: MSRQSTITFQTSSRRGFSTASATTPATSRSRFSSASVTHSPAGSGGLGRISGFGSRSLYNLGGTKRVSISGCGSNFRSGFGGRASSGFGVSGGFGYGGGIGGGHGGCGFSVCPPGGIQEVTVNQSLLTPLNLQIDPNIQRVRKEEREQIKTLNNKFASFIDKVRFLEQQNKVLETKWSLLQEQGTRTVRQSLEPFFEAYITDLRRQLDSITTERGRLDAELRTMQDVVEDFKVRYEDEINKRTAAENEFVALKKDVDAAYLNKVDLEAKANSLTDEINFLQMLFEAELCQMQTRVSDTSVVLSMDNNRSLDLDSIIAEVKAQYEEIANRSRAEAESWYQTKYEELQVTAGQHGDDLRNTKQEISETNRMIQRLRAEIDNVKKQCASLQTAIADAEQRGELALKDARAKLVDLEEALQKSKQDMARLLREYQELMNIKLALDVEIATYRKLLEGEECRLSGEGVSPVNISVVTSTVSSGYGGGSSIGSGSLGLSGGSGCSFMTSGGHSLGGSSFSNSSSRGLGGSGSSFKFVSTTSSSRKSYKH
Writhing incubation period (BD-11 50 mg/kg oral): 163.8 ± 8.2 s | Frequency of writhing (BD-11 50 mg/kg oral): 35.0 ± 2.5 times | Effect on number of writhing in mice (BD-11 200 mg/kg dose group, P<0.05 vs model group): significantly reduce the number of writhing | Writhing incubation period (BD-11 200 mg/kg oral): 299.9 ± 65.2 s | Frequency of writhing (BD-11 200 mg/kg oral): 23.3 ± 3.1 times | Effect on number of writhing times in mice (summary) (dose not given): significantly reduce the number of writhing times
